Data published in patent US20110275559A1, “Long-Acting Y2 and/or Y4 Receptor Agonists” (Novo Nordisk A/S, priority 2008, published 2011).
*1 amine or outer side, *2 acyl side, *3 side chain or, on linkers, in order; H or OH if unused. Where a SMILES comes first, the peptide text is derived from it. Where no end group is shown, it is not given here. Side-chain parts run from the residue outwards. The star is where a group is joined. C20 diacid = O=C(O)CCCCCCCCCCCCCCCCCCC(=O)*; C18 diacid = O=C(O)CCCCCCCCCCCCCCCCC(=O)*; γGlu = O=C(O)[C@H](CCC(=O)[*:2])N[*:1]; Trx = NC[C@H]1CC[C@H](C(=O)O)CC1; AEEA = NCCOCCOCC(=O)O

B1: N-epsilon26-[2-(2-{2-[2-(2-{2-[(S)-4-Carboxy-4-({trans-4-[(19-carboxynonadecanoylamino)methyl]cyclohexanecarbonyl}amino)butyrylamino]-ethoxy}ethoxy)acetylamino] … (peptide)
peptide: PLEPVYPGDNATPEQLAQYAADLRK([AEEA-AEEA-γGlu-Trx-C20 diacid])YINLLTRPRY
modifications: ends and bridges not checked
B2: [Leu17,Leu30]hPP2-36 (peptide)
peptide: PLEPVYPGDNATPEQLAQYAADLRRYINLLTRPRY
modifications: ends and bridges not checked
B3: N-epsilon11-[2-(2-{2-[2-(2-{2-[(S)-4-Carboxy-4-(17-carboxyheptadecanoylamino)butyrylamino]ethoxy}ethoxy)acetylamino]-ethoxy}ethoxy)acetyl][Lys11,Leu17,Leu30]hPP … (peptide)
peptide: PLEPVYPGDK([AEEA-AEEA-γGlu-C18 diacid])ATPEQLAQYAADLRRYINLLTRPRY
modifications: ends and bridges not checked
B4: N-epsilon13-[2-(2-{2-[2-(2-{2-[(S)-4-Carboxy-4-({trans-4-[(19-carboxynonadecanoylamino)methyl]cyclohexanecarbonyl}amino)butyrylamino]-ethoxy}ethoxy)acetylamino] … (peptide)
peptide: APLEPVYPGNDAK([AEEA-AEEA-γGlu-Trx-C20 diacid])PEQLAQYAADLRRYINLVTRPRY
modifications: ends and bridges not checked
B5: N-epsilon33-[2-(2-{2-[2-(2-{2-[(S)-4-Carboxy-4-(17-carboxyheptadecanoylamino)butyrylamino]ethoxy}ethoxy)acetylamino]-ethoxy}ethoxy)acetyl][Leu17,Leu30,Lys33]hPP … (peptide)
peptide: PLEPVYPGDNATPEQLAQYAADLRRYINLLTK([AEEA-AEEA-γGlu-C18 diacid])PRY
modifications: ends and bridges not checked
B6: N-epsilon13-[2-(2-{2-[2-(2-{2-[(S)-4-Carboxy-4-({trans-4-[(19-carboxynonadecanoylamino)methyl]cyclohexanecarbonyl}amino)butyrylamino]-ethoxy}ethoxy)acetylamino] … (peptide)
peptide: APLEPVYPGDNAK([AEEA-AEEA-γGlu-Trx-C20 diacid])PEQLAQYAADLRRYVNLLTRQRY
modifications: ends and bridges not checked
B7: N-epsilon26-[2-(2-{2-[2-(2-{2-[(S)-4-Carboxy-4-(17-carboxyheptadecanoylamino)butyrylamino]ethoxy}ethoxy)acetylamino]-ethoxy}ethoxy)acetyl][Leu17,Lys26,Leu30]hPP … (peptide)
peptide: PLEPVYPGDNATPEQLAQYAADLRK([AEEA-AEEA-γGlu-C18 diacid])YINLLTRPRY
modifications: ends and bridges not checked
B8: N-epsilon25-[2-(2-{2-[2-(2-{2-[(S)-4-Carboxy-4-({trans-4-[(19-carboxynonadecanoylamino)methyl]cyclohexanecarbonyl}amino)butyrylamino]-ethoxy}ethoxy)acetylamino] … (peptide)
peptide: PLEPVYPGDNATPEQLAQYAADLK([AEEA-AEEA-γGlu-Trx-C20 diacid])RYINLLTRPRY
modifications: ends and bridges not checked
B9: N-epsilon33-[2-(2-{2-[2-(2-{2-[(S)-4-Carboxy-4-({trans-4-[(19-carboxynonadecanoylamino)methyl]cyclohexanecarbonyl}amino)butyrylamino]-ethoxy}ethoxy)acetylamino] … (peptide)
peptide: PLEPVYPGDNATPEQLAQYAADLRRYINLLTK([AEEA-AEEA-γGlu-Trx-C20 diacid])PRY
modifications: ends and bridges not checked
B10: N-epsilon13-[2-(2-{2-[2-(2-{2-[(S)-4-Carboxy-4-({trans-4-[(19-carboxynonadecanoylamino)methyl]cyclohexanecarbonyl}amino)butyrylamino]-ethoxy}ethoxy)acetylamino] … (peptide)
peptide: APLEPVYPGDNAK([AEEA-AEEA-γGlu-Trx-C20 diacid])PEQLAQYAADLRRYINVLTRQRY
modifications: ends and bridges not checked
B11: N-epsilon35-[2-(2-{2-[2-(2-{2-[(S)-4-Carboxy-4-(17-carboxyheptadecanoylamino)butyrylamino]ethoxy}ethoxy)acetylamino]-ethoxy}ethoxy)acetyl][Leu17,Leu30,Lys35]hPP … (peptide)
peptide: PLEPVYPGDNATPEQLAQYAADLRRYINLLTRPK([AEEA-AEEA-γGlu-C18 diacid])Y
modifications: ends and bridges not checked
B12: N-epsilon13-[2-(2-{2-[2-(2-{2-[(S)-4-Carboxy-4-({trans-4-[(19-carboxynonadecanoylamino)methyl]cyclohexanecarbonyl}amino)butyrylamino]-ethoxy}ethoxy)acetylamino] … (peptide)
peptide: APLEPVYPGDNAK([AEEA-AEEA-γGlu-Trx-C20 diacid])PEQLAQYAADLRRYLNVLTRQRY
modifications: ends and bridges not checked
B13: N-epsilon35-[2-(2-{2-[2-(2-{2-[(S)-4-Carboxy-4-({trans-4-[(19-carboxynonadecanoylamino)methyl]cyclohexanecarbonyl}amino)butyrylamino]-ethoxy}ethoxy)acetylamino] … (peptide)
peptide: PLEPVYPGDNATPEQLAQYAADLRRYINLLTRPK([AEEA-AEEA-γGlu-Trx-C20 diacid])Y
modifications: ends and bridges not checked
B14: N-epsilon11-[2-(2-{2-[2-(2-{2-[(S)-4-Carboxy-4-({trans-4-[(19-carboxynonadecanoylamino)methyl]cyclohexanecarbonyl}amino)butyrylamino]-ethoxy}ethoxy)acetylamino] … (peptide)
peptide: PLEPVYPGDK([AEEA-AEEA-γGlu-Trx-C20 diacid])ATPEQLAQYAADLRRYINLLTRPRY
modifications: ends and bridges not checked
B15: N-alfa-[2-(2-{2-[2-(2-{2-[(S)-4-Carboxy-4-({trans-4-[(19-carboxynonadecanoylamino)methyl]cyclohexanecarbonyl}amino)butyrylamino]-ethoxy}ethoxy)acetylamino]ethox … (peptide)
peptide: APLEPVYPGDNATPEQLAQYAADLRRYINLLTRPRY
modifications: not fully specified (N-terminus); printed as N-alfa-[2-(2-{2-[2-(2-{2-[(S)-4-Carboxy-4-({trans-4-[(19-carboxynonadecanoylamino)methyl]cyclohexanecarbonyl}amino)butyrylamino]-ethoxy}ethoxy)acetylamino]ethoxy}ethoxy)acetyl][Leu17,Leu30]hPP1-36; ends and bridges not checked
B16: N-epsilon18-[2-(2-{2-[2-(2-{2-[(S)-4-Carboxy-4-(17-carboxyheptadecanoylamino)butyrylamino]ethoxy}ethoxy)acetylamino]-ethoxy}ethoxy)acetyl][Lys18,Leu17,Leu30]hPP … (peptide)
peptide: PLEPVYPGDNATPEQLK([AEEA-AEEA-γGlu-C18 diacid])QYAADLRRYINLLTRPRY
modifications: ends and bridges not checked
B17: N-epsilon18-[2-(2-{2-[2-(2-{2-[(S)-4-Carboxy-4-({trans-4-[(19-carboxynonadecanoylamino)methyl]cyclohexanecarbonyl}amino)butyrylamino]-ethoxy}ethoxy)acetylamino] … (peptide)
peptide: PLEPVYPGDNATPEQLK([AEEA-AEEA-γGlu-Trx-C20 diacid])QYAADLRRYINLLTRPRY
modifications: ends and bridges not checked
B18: N-epsilon13-[2-(2-{2-[2-(2-{2-[(S)-4-Carboxy-4-({trans-4-[(19-carboxynonadecanoylamino)methyl]cyclohexanecarbonyl}amino)butyrylamino]-ethoxy}ethoxy)acetylamino] … (peptide)
peptide: APLEPVYPGDNAK([AEEA-AEEA-γGlu-Trx-C20 diacid])PEQLAQYAADLRRYIQLLTRPRY
modifications: ends and bridges not checked
B19: N-epsilon29-[2-(2-{2-[2-(2-{2-[(S)-4-Carboxy-4-({trans-4-[(19-carboxynonadecanoylamino)methyl]cyclohexanecarbonyl}amino)butyrylamino]-ethoxy}ethoxy)acetylamino] … (peptide)
peptide: PLEPVYPGDNATPEQLAQYAADLRRYIK([AEEA-AEEA-γGlu-Trx-C20 diacid])LLTRPRY
modifications: ends and bridges not checked
B20: N-epsilon13-[2-(2-{2-[2-(2-{2-[(S)-4-Carboxy-4-({trans-4-[(19)-carboxynonadecanoylamino)methyl]cyclohexanecarbonyl}amino)butyrylamino]-ethoxy}ethoxy)acetylamino … (peptide)
peptide: APLEPVYPGDNAK([AEEA-AEEA-γGlu-Trx-C20 diacid])PEQLAQYAADLRRYINLLTRQRY
modifications: ends and bridges not checked

Target: T1, Y2 receptor (Homo sapiens, UniProt P49146)
T1 construct: host or cells: ACTOne HEK-293 cells
T1 sequence (P49146 1-381): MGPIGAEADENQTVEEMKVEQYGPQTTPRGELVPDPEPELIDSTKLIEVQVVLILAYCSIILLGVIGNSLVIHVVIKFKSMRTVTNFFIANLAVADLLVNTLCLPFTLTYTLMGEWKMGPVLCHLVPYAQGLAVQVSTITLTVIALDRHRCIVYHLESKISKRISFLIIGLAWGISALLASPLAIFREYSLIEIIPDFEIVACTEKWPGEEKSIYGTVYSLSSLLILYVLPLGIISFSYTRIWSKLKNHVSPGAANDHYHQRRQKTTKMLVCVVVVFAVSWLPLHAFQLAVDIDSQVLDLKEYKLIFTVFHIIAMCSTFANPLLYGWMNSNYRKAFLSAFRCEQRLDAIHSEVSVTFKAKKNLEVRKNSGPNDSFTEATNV
Test: Y2 receptor ACTOne based FLIPR assay (cAMP biosensor)
Assay type: cell-based
Description: ACTOne™ is an easily scaleable cAMP biosensor HTS platform for measurement of Gs and Gi coupled 7™ receptor signalling from BD Biosciences (San Jose, Calif.). The cells express a biosensor developed around a modified rat olfactory cyclic nucleotide gated (CNG) calcium channel—a fairly non-discriminatory ion channel that responds to cAMP and cGMP. The CNG has been engineered to be cAMP selective and thus function as a cAMP responsive biosensor that signals through calcium or membrane potential responsive dyes. Y2 or Y4 receptor expressing ACTOne HEK-293 cells are obtained from BD Biosciences. The cells are loaded with a calcium responsive dye that only distributes in the cytoplasm. Probenecid, an inhibitor of the organic anion transporter is added to prevent the dye from leaving the cell. A phosphodiesterase inhibitor is added to prevent formatted cAMP from being degraded. Isoproterenol (an β1/β2 agonist) is added to activate the adenylate cyclase. When an Y2 or Y4 receptor agonist is added, the adenylate cyclase is inactivated. The decreased calcium concentration in the cytoplasm is then detected as an increase in fluorescence. Together with the test substance, Isoproterenol at a concentration matching EC80, is added to all wells. • The cells are plated out in Greiner 384-well plates. […] The plates are covered with tinfoil to avoid light (the dye can be excited by the daylight, which results in higher baseline and variation). • The FLIPR (FLIPRtetra from Molecular Devices, CA, USA) adds 1 μl sample and 1 μl isoproterenol (0.05 μM final concentration) at the same time. • The fluorescence signal from the wells is measured 330 seconds after sample addition on the FLIPR.

Molecule | EC50 [nM]
CC[C@H](C)[C@H](NC(=O)[C@H](Cc1ccc(O)cc1)NC(=O)[C@H](CCCNC(=N)N)NC(=O)[C@H](CCCNC(=N)N)NC(=O)[C@H](CC(C)C)NC(=O)[C@H](CC(=O)O)NC(=O)[C@H](C)NC(=O)[C@H](C)NC(=O)[C@H](Cc1ccc(O)cc1)NC(=O)[C@H](CCC(N)=O)NC(=O)[C@H](C)NC(=O)[C@H](CC(C)C)NC(=O)[C@H](CCC(N)=O)NC(=O)[C@H](CCC(=O)O)NC(=O)[C@@H]1CCCN1C(=O)[C@H](CCCCNC(=O)COCCOCCNC(=O)COCCOCCNC(=O)CC[C@H](NC(=O)[C@H]1CC[C@H](CNC(=O)CCCCCCCCCCCCCCCCCCC(=O)O)CC1)C(=O)O)NC(=O)[C@H](C)NC(=O)[C@H](CC(N)=O)NC(=O)[C@H](CC(=O)O)NC(=O)CNC(=O)[C@@H]1CCCN1C(=O)[C@H](Cc1ccc(O)cc1)NC(=O)[C@@H](NC(=O)[C@@H]1CCCN1C(=O)[C@H](CCC(=O)O)NC(=O)[C@H](CC(C)C)NC(=O)[C@@H]1CCCN1C(=O)[C@H](C)N)C(C)C)C(=O)N[C@@H](CCC(N)=O)C(=O)N[C@@H](CC(C)C)C(=O)N[C@@H](CC(C)C)C(=O)N[C@H](C(=O)N[C@@H](CCCNC(=N)N)C(=O)N1CCC[C@H]1C(=O)N[C@@H](CCCNC(=N)N)C(=O)N[C@@H](Cc1ccc(O)cc1)C(N)=O)[C@@H](C)O [SEQ ID NO: 18, N-epsilon13-[2-(2-{2-[2-(2-{2-[(S)-4-Carboxy-4-({trans-4-[(19-carboxynonadecanoylamino)methyl]cyclohexanecarbonyl}amino)butyrylamino]-ethoxy}ethoxy)acetylamino]ethoxy}ethoxy)acetyl][Lys13,Leu17,Gln29,Leu30]hPP(1-36)] (H-APLEPVYPGDNAK([AEEA-AEEA-γGlu-Trx-C20 diacid])PEQLAQYAADLRRYIQLLTRPRY-NH2) | > 1000

Target: T2, Y2 receptor (UniProt P49146 1-381, limits assumed)
T2 sequence (looked up): T1 sequence (P49146 1-381)
Test: cell-based or functional assay

Molecule | Y2 cAMP EC50 [nM]
B1 | > 1000
B2 | > 1000
B3 | > 1000
B4 | 92
B5 | > 1000
B6 | 63
B7 | > 1000
B8 | > 1000
B9 | > 1000
B10 | 130
B11 | > 1000
B12 | 73
B13 | > 1000
B14 | > 1000
B15 | > 1000
B16 | > 1000
B17 | > 1000
B18 | > 1000
B19 | > 1000
B20 | 54

Target: Y4 receptor (UniProt P50391 1-375, limits assumed)
Test: cell-based or functional assay

Sequence of Y4 receptor (P50391 whole entry): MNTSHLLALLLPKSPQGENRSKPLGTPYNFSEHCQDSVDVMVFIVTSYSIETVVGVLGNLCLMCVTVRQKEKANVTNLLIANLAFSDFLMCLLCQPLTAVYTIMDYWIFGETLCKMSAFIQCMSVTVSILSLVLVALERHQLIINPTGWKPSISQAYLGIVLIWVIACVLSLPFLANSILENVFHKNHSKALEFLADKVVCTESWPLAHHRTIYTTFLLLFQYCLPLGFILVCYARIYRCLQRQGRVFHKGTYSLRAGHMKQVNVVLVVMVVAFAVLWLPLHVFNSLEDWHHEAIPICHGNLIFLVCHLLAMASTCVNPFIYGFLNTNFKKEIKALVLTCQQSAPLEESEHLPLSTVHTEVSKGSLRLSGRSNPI

Molecule | Y4 cAMP EC50 [nM]
B1 | 7
B2 | 0.9
B3 | 1
B4 | 18
B5 | > 1000
B6 | 65
B7 | 5
B8 | > 1000
B9 | > 1000
B10 | 7
B11 | > 1000
B12 | 7
B13 | > 1000
B14 | 2
B15 | 3.2
B16 | 0.4
B17 | 0.8
B18 | 130
B19 | > 890
B20 | 18
